Assay results published in the DeepSol protein solubility set.

Experiment: soluble on expression in E. coli; label from the status in PepcDB or PDB records

Row | Sequence | soluble on expression in E. coli
1 | MSLRKRIIEVSTDYKILIVDDEEGIINSMKVMLTRSGYFCMGISNPLEAIETLKKEHFDMLILDYIMSPIHGDEVVAKIREFNKDIYILLLTGHKDLAPPLETIKALDIQGYCEKGDKFDQLLLLIESGIKSISQMRTIRQFKDGLNRILQAVPKIYQLQPIGVILEEILQGLMPLVNSKDAFILVDDCNSGEGKIIFKGVGEYDIKAESLVTMLSPELMENIGRARDSKKVLLLDHGIILPLTNEQNKSIGVIYIESSNLGDGIKLLEIYSTQAASSINNAFLHSLINMKKEELDRTYQELRKRYIDTIEALRLTVDAKDIYTRGHSDRVAYYAVKLGEAFGLPEDQLELLKVGGIFHDIGKIGTADDILFKTDKLSYDEYEEIKKHPLKGAYILSAISMFKDVVPLVKYHHERIDGKGYPEGLKGDEIPFLARILTVADAFDAMMSDRKYRSKLSLEETKEQFRLYSGTQFDPQVVEKLFEILENYDLMLEELSKTFTEGHHHHHH | soluble
2 | MAMNNILGLFAQSPLKPLQKHSVKVTECSELLEPFFEATFKQDWDEAIKVREQIIDLERRADALKREIRLKLPRGLFLPVERTDLLELVTQLDKLANYSRDISGRIIGRQLVIPEAMQATFRKFLSRSLDSTRQVRKVLAELDKLLETGFRGRELKFVNNMILELDQIEDDTDQIQIVLRRTLRGLEQEFNPIDVIFLYKCIERVSILADQAQRVGSRIELMLAKALEHHHHHH | soluble
3 | MEKPASKSKRKPKETSDDVDADVLPEKGLHNSDGFLFYHASFRPLTSAQHRRAEEHGIDLKTKKVFTVEESIQVFENWRKFATEHNMKLAKAPEYISPKKTDRHIFKHQEEHHFWPKLCDGLPHRPACTIKMRAISMMTSSFMENLEWSRLAEEIKAKLHTYETNDDLTMQKAQKLLEKGYAASHVAEILNVSNGKMSSMASKLRTLEARNDPTMIHAFYESTVYFGLKLKKLRRAITTNDDYRIESVRRKVRLEEIGLQLHISEQKCKDLLKIVIETIRTKYTESLEEAGLDEDEAWSKALALVDSRPPIEESQLYKALEIICKHIEKAETTGSLLSHEQLPSIIKSHGITGFQSDRSEYAYLHFRLCGLLMHQLTTGFFEHLRREFPLQIKLHCLLWSYKRLDVWEKICVEEGKTRYETVLKSEIANPLASKMTLKFLKNEKVVEWISDPRPPKNRQKAATRRLETAIESFILYSYNKFGETFKFPAKFRRILHTSKTVRSVLEVVSDPENAEFLSIKEARKTVEDASGCKIAVKIKNKRIVPKLKDESDASEDGESENSDSEDLIKHSHSIERSAFEERRDEIEKVLQRADPSKIRAKFRKKDEIPEEILLSKELRQQKRAMTRAAEKLERLEAKICSAEFIDDGSGCSYSQVDEDLLEREKKRKRKKSEASEVVIGTDQLDTAEDLQGSKKKKHAEVLEGKDHEDTGCSDSQQVMDPEVCEDLVEKEKKKKRKRKISEASEVVIGMNQMERAEDLQRSKKKKHAEILEGNDHEDSENLKKRSKKKKKRKDHDAEFDAELDLDSENLDEEPKKRKKHC | soluble
4 | MNPNFLDFEQPIADLQAKIEELRLVGNDNSLNIGDEISRLQDKSKTLTESIFGNLTSWQIARMARHPRRPYTLDYIENIFTEFDELHGDRHFSDDAAIVGGIARLDNQPVMIIGHQKGREVREKVRRNFGMPRPEGYRKACRLMEMAERFKMPILTFIDTPGAYPGIDAEERNQSEAIAWNLRVMARLKTPIIATVIGEGGSGGALAIGVCDQLNMLQYSTYAVISPEGCASILWKTAEKAPDAAEAMGITADRLKGLGIVDKVIAEPLGGAHRDPVAAAALIREELSSQLAMLKAFDNDALLARRYDRLMSYGL | not soluble
5 | MGSDKIHHHHHHMIKMRIKPLEEYRIGLRQSSGIVIENVDVISAFPSPTTILGIIGAMKNAKPSQLSGIDDLREAYTSLTGNNTLSGDCDSSDNPLIWGPLIKEKDNKIYTPLFFNKLILDPIEYVKTSLNENVKVQSESLVKEIGIQIRRMNQMNRGSRNTIHLFYQKFFGSNYELEYCINIDDLKKLVKENVVALGGENRYARVRIDNGNCNFGNGNYAILLQPLLFESDSEYFVRLDNVKGLGCIDEIYGVLVEKGNKIDFNNFKVKVVYYALGYGNERRPMLQALPPGTVIKVKETCNNAKALGLLSELGFGAIYRVDPGNR | not soluble
6 | MAHHHHHHMRCCSTALRTGRRGPGGWTEPRLQQATSTDFMRDSTGTGGDNNNNNNNDGGKGPSSALKRHFNVNDFSMIERQQMTLTKLMRITMDATFKPKDPDSRTYGGDGATQRAALREELKTMDSRIVPFAHEEILNDYLKNIVELSGPSGQRYDREMLRGRLVGLLFFTETDRSLAFMRLLREFHQRHRRDFVVVAISLGGKEMMDITRQHGFYHCSHRDGATWVQRDTGLMVRPWTPLPRLIVVNGTSGEEITSSGVTAVKAHPNTCFEKWKNGEEGCDWWDYIKTFYM | soluble
7 | MSLGTAVLDLMANGVDMLCWADPFFPDPVLPEHISQAVIKSMENGSASHYTMPIGNPELKEKIALKLQRYNNLTVEAQRNILITPGSDSGLLFAMMPFINNDDEVLIHSPSYPSNFLNVELLGGKPISVELKAENNFQIDIKDFENKITEKTKMVILTNPNNPTGTVLRRESLQAIADFIIAHDLILVVDQAFEDAIFDEIEFISIASLPGMWERTVSVFSFSKGMGLSGFRVGYLVADAQIVDVLFGCTVNVVGATNTSSQAGMIAALDEPSFMGEYTQIFERRRKVVFEMMNAIPGVCMVMPESGFLSWIDISKLGTSTFICDYLLQHAHVMVNSGVPYGQGGEGYIRLVHGCYKDDEKLYAVLTRIQQALMQLAKEGHHHHHH | not soluble
8 | MGSDKIHHHHHHKETGNMPEIKKQPIASAVPDFNADSAYAYVANQVAFGPRVPNTAAHKACGDYLASELKRFGAKVYQQEAILTAYDGTKLEARNIIGSFDPENSKRVLLFAHWDSRPYSDHDPDPSKHRTPLDGADDGGSGVGALLEIARQIGQKAPGIGIDIIFFDAEDYGTPEFVTDYTPDSWCLGTQFWAKNPHVPNYTAEYGILLDMVGGKNATFFKEQQSLRAAAPIVEMVWSAARDLGYGKYFINAAGGAITDDHQYVISGRNIPSIDIINYDPESKTGFASYWHTQKDNMENIDRETLKAAGQTVLEVIYNR | not soluble
9 | MGSDKIHHHHHHLCRRLDGLNPNQQALCAENPFSIPFVARGVREAIRECENKFKFERWNCSSRDEVTETRHGKFQDILGKTLRSANKEAAFLNAIMAASIVHSITKGCNTGNLTECGCDSKPGMQRYQAESDPSMSRDQFSWGGCSDNVPHGIRYAKKFLDDWETAQFDKTKNVAHLVRRHNNFVGREAIAQNIRRQCRCHGVSGSCEFKTCWLQMQKFSQVSDLLKKRYDHFAVQVTRKATKRLRRKERTERKIPLRGNEMAYVHRSPSYCEKNLTAGILGTSGRECIHNSYSSESCDLLCCGRGYNTRLEIRQTQCECKFVWCCEVKCKTCTEEVAVHTCK | not soluble
10 | MPEAWAPVRPETPPAPELLYWNAELADELGLDAGQTDKGELARLFSGADIPEGAQPIAQAYAGHQFGGLSPSLGDGRALLLGEVTDRNGQRRDIALKGSGQTPFSRRGDGKAAVGPMLRELIVGEAMQALGIPTTRALAVTTTGEPVYRERPLPGAVLTRVAASHLRVGTFQYFAIRGETAMLNKLADYTIARHYPQLAGRDGRHLALLAAVAERQAALIARWMHAGFIHGVMNTDNMALSGETIDYGPCAFMDAHYPGTVFSSIDHQGRYAYGNQPAIAQWNLARFAETLLPLISPDDPAAAVPAATEIVEGFEDLYQRRWLEQARRKLGLEGERDDDQALADDWLMLLAAHGVDHTLAWRYLADEAEGKGERLAALFPSPDALTPWLKQWHARHVPRTRRPPDIAAAMRRESPLYIPRNHLVEEALDAASERGDMGPTLKLLEALHQPFAERDGLDRYAQPAAAELAEGYRTFCGTLEHHHHHH | not soluble
11 | MNPASPFATLTDRIDWQKVDGLVPAIVQDFQSSQVLMMGYMNPEALQKTLDTQQVTFFSRSKQRLWTKGETSGHVLQLKNIALDCDQDTLLVKVNPIGPTCHTGTVTCWDGDAQEESQMVWLHQLEQLLAERKNADPSSSYTASLYARGTKRIAQKVGEEGVEVALAATAGDKEELICESADLMYHLLVLLQEQGLAMNDVINKLKERHK | not soluble
12 | MGSDKIHHHHHHMRWFSLATAFLWGYYGFDNFGDELMFKACVNLLRELGFGTIYTPLPKGKKSMGVTSVDRYSIKLLSLLKKSQVSIAGGGGLFQDVTSLRSLLYYYSISKASLLMDKPLIFFGNSVGPLRRRLSKKLVWDVFKDKRTVFIARDPASYRYVKMVGGNAVLGTDPAIIHLMESDMEKKTEKKAVFFLKSPMDVSYILKSLRDQGINDFVISTAFPGDHSYLPPLRNGENLLEEIVSSSIVITERFHPALVAAYFEIPFIIVDCQKARRFFARYTKEDHFFSKRDPLEISLKVPVVLKKELKLKEKMKNDAIEMKEMLKGVLKGW | not soluble
